Here are results for one substance from PMC8137598.

The target of this experiment is full-length A82F variant of CYP102A1 with an N-terminal His6 tag (Bacillus megaterium) (UniProt P14779). The experiment in a line: SEC-MALS.

A word on the stoichiometry N: it is the number of molecules, sites or subunits per partner or assembly.

Substance “full-length A82F variant of CYP102A1 with an N-terminal His6 tag (from UniProt P14779 1-1049) (enzyme)” came in with a stoichiometry N of 2.
